# Values quoted from earlier work, collected in US8278280B2, “Antagonists of the bradykinin B1 receptor” (priority 2003, dated 2012).
# Target: T1, B2 receptors (Homo sapiens, UniProt P30411)
# T1 sequence (P30411 1-391): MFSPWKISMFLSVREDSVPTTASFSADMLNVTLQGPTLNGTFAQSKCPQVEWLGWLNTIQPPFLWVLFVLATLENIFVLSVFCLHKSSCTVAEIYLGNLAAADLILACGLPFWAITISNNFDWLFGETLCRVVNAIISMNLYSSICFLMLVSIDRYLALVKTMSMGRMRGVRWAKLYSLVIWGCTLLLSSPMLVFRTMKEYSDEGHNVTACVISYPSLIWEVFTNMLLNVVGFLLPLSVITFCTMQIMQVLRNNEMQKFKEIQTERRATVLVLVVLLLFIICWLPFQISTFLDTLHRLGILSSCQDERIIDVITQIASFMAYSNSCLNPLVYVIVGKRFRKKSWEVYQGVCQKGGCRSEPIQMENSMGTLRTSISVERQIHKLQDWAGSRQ
substance,measurement,value
"Arg Pro Pro Gly Phe Ser Pro Phe (RPPGFSPF; listed as Homo sapiens) [des-Arg-BK, B1 Agonist]",activity at B2 receptors,inactive
